Measurements published in patent publication US20240117049A1 (Hoffmann-La Roche, published 2024).

How the values were obtained:
[1] = target: T1, biotinylated recombinant human FAP (human, UniProt Q12884 27-760, biotinylated); assay: SPR (Biacore)
T1 construct: the Biacore paragraphs only say biotinylated (recombinant) human FAP; also called biotinylated human FAP; recombinant huFAP

[2] = target: T1, biotinylated recombinant human FAP; assay: SPR (Biacore), biotinylated huFAP on CAP chip, Fab as analyte, 1:1 fit
Description: As running and dilution buffer, HBS-P+ (10 mM HEPES, 150 mM NaCl pH 7.4, 0.05% Surfactant P20) was used. A dilution series of anti-huFAP Fabs (3.7-300 nM, 1:3 dilution) was successively injected for 120s each, dissociation was monitored for 1800s at a flow rate of 30 μl/min (single cycle kinetics). The surface was regenerated by injecting 6 M guanidine-HCl, 0.25 M NaOH for 120s. Bulk refractive index differences were corrected by subtracting blank injections and by subtracting the response obtained from the control flow cell without captured human FAP. Curve fitting was performed using the 1:1 Langmuir binding model within the Biacore evaluation software.

| Kd [1] [nM] | T ½ [1] [h] | koff [1] [s⁻¹] | kon [1] [M⁻¹ s⁻¹] | Kd [2] [nM] | koff [2] [s⁻¹] | kon [2] [M⁻¹ s⁻¹] | Binder |
| --- | --- | --- | --- | --- | --- | --- | --- |
| 0.114 | 3.05 | 6.3e-05 | 551000 |  |  |  | P1AE1690_Fab, humanized anti-FAP Fab VH1G2a/VL1G1a (Fab, V domains shown) VH: QVQLVQSGAEVKKPGASVKVSCKASGYTLTDYNMDWVRQAPGKSLEWIGDIYPNTGGTIYNQKFKGRVTMTIDKSTSTVYMELSSLRSEDTAVYYCTRFRGIHYAMDYWGQGTTVTVSS VL: EIVLTQSPATLSLSPGERATLSCRASESVDNYGLSFINWFQQKPGQAPRLLIYGTSNRGSGIPARFSGSGSGTDFTLTISSLEPEDFAVYFCQQSNEVPYTFGGGTKVEIK |
| 0.095 | 4.57 | 4.21e-05 | 443000 |  |  |  | P1AE1689_Fab, humanized anti-FAP Fab VH1G1a/VL1G1a (Fab, V domains shown, also called FAP antibody 1G1a; H212) VH: QVQLVQSGAEVKKPGASVKVSCKASGYTLTDYNMDWVRQAPGQGLEWIGDIYPNTGGTIYNQKFKGRVTMTIDTSTSTVYMELSSLRSEDTAVYYCTRFRGIHYAMDYWGQGTTVTVSS VL: EIVLTQSPATLSLSPGERATLSCRASESVDNYGLSFINWFQQKPGQAPRLLIYGTSNRGSGIPARFSGSGSGTDFTLTISSLEPEDFAVYFCQQSNEVPYTFGGGTKVEIK |
| 0.135 | 2.68 | 7.18e-05 | 530000 |  |  |  | P1AE1693_Fab, humanized anti-FAP Fab VH1G2a/VL1G2a (Fab, V domains shown) VH: QVQLVQSGAEVKKPGASVKVSCKASGYTLTDYNMDWVRQAPGKSLEWIGDIYPNTGGTIYNQKFKGRVTMTIDKSTSTVYMELSSLRSEDTAVYYCTRFRGIHYAMDYWGQGTTVTVSS VL: EIVLTQSPATLSLSPGERATLSCRASESVDNYGLSFINWFQQKPGQPPRLLIYGTSNRGSGIPARFSGSGSGTDFTLTISSLEPEDFAVYFCQQSNEVPYTFGGGTKVEIK |
| 0.279 | 0.917 | 0.000208 | 747000 | 0.43 | 0.00078 | 1.82e+06 | 4B9_Fab (Fab, V domains shown, Fab; also called anti-FAP 4B9 Fab) VH: EVQLLESGGGLVQPGGSLRLSCAASGFTFSSYAMSWVRQAPGKGLEWVSAIIGSGASTYYADSVKGRFTISRDNSKNTLYLQMNSLRAEDTAVYYCAKGWFGGFNYWGQGTLVTVSS VL: EIVLTQSPGTLSLSPGERATLSCRASQSVTSSYLAWYQQKPGQAPRLLINVGSRRATGIPDRFSGSGSGTDFTLTISRLEPEDFAVYYCQQGIMLPPTFGQGTKVEIK |
